Assay [1] deals with T1, recombinant derivative of the LukD protein (SEQ ID NO: 824) with amino-terminal polyhistidine affinity tag, … (Staphylococcus aureus, UniProt Q2FXB1 27-327, chemically biotinylated in vitro (sites not given)).
T1 construct: it carries the N-terminal His tag; also called biotinylated LukD; LukD antigen
T1 sequence: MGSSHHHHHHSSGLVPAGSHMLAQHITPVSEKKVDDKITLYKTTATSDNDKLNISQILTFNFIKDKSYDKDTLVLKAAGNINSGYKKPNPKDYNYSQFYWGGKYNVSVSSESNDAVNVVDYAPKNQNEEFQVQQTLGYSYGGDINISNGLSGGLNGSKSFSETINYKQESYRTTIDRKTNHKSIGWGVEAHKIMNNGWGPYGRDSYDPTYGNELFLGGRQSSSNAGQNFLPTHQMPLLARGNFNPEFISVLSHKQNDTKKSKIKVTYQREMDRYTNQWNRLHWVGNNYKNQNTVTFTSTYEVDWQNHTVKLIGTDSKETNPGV
Kind of assay: ELISA, biotinylated LukD on streptavidin plate, mAb titrated.

In assay [2] the target is T2, recombinant derivative of the LukE protein (SEQ ID NO: 826) with amino-terminal poly-histidine affinity tag (Staphylococcus aureus, UniProt Q2FXB0 24-306).
T2 construct: not biotinylated in HDX-MS and neutralization assays; also called biotinylated LukE; LukE antigen
T2 sequence: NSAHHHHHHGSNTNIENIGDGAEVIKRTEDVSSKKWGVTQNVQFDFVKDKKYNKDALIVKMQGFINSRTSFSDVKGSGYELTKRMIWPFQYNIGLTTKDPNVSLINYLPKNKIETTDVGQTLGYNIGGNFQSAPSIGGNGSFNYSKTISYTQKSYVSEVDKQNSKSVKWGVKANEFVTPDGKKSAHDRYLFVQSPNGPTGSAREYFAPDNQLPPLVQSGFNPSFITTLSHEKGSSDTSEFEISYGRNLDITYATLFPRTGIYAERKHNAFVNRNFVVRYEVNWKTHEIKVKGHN
As to the kind of experiment: ELISA, biotinylated LukE on streptavidin plate, mAb titrated.

The target of assay [3] is T2, recombinant derivative of the LukE …. Kind of assay: HDX-MS, Fab with LukE in solution.
The target in assay [4] is T3, recombinant toxoid variant of the LukAB protein (LukA E323A) with poly-histidine and streptavidin binding … (Staphylococcus aureus, UniProt Q2FFA2 31-351; P21224 30-338).
T3 construct: also called LukAB toxoid protein; biotinylated LukAB
As to the kind of experiment: ELISA, biotinylated LukAB toxoid on streptavidin plate, mAb titrated.

The target of assay [5] is T2, recombinant derivative of the LukE …. As to the kind of experiment: BLI, sequential binding.

Positions count from the first letter of the chain named.

B1: antibody SM1B225 (antibody, V domains shown)
VH: EVQLQQSGGGLVKPGGSLKLSCAASGFTFSSYAMSWVRQTPEKRLEWVATITGGGTYTYYLDSVKGRFTISRDNAKTSLYLQMSSLRSEDTAMYYCARHRDGNYGCFDVWGAGTTVTVSS
VL: DIVLTQSPAIMSASLGERVTMTCTASSSVSSSYLHWYQQKPGSSPKLWVYSTSNLASGVPARFSGSGSGSSYSLTISSMEPEDTATYYCHQYHRSPQTFGGGTKLEIKR
notes: also called anti-LukD mAb SM1B225
Take B1: the EC50 in assay [1] was in the range of 0.01 to 0.2 µg/mL.

B2: anti-LukE mAb SM1B332 (antibody, mouse IgG2a, kappa, V domains shown)
VH: QVQLKESGPGLVAPSQSLSITCTVSGLSLTSYGLSWVRQPPGKGLEWLGVIWGDGSTNYHSALISRLSISKDNSKSQVFLKLNSLQSDDTATYYCATRGDYGSYAMDYWGQGTSVTVSS
VL: QIVLTQSPAIMSASPGEKVTLTCSASSSVSSSYLFWYQQKPGSSPKLWIYSTSNLASGVPVRFSGSGFGTSYSLTISRMEAEDAASYFCHQWSSYPPTFGAGTKLELKR
In the case of B2, the EC50 in assay [2] is approximately 0.05 µg/mL.

B3: Fab SM1B709 (the Fab corresponding to mAb SM1B507) (Fab, V domains shown)
VH: EVQLQQSGAELVKPGASVKMSCKASGYTFTDYYMDWVKQSHGKSFEWIGHVNPYNGDTRYNQKFKGKATLTVDKSSTTAYMELNSLTSEDSAVYYCARGNFFDYWGQGTTLSVSS
VL: DIVMTQSPAIMSASPGEKVTIPCSASSSVSYMHWFQQKPGTSPKLWIYSTSNLASGVPGRFSGSGSGTSYSLTISRMEAEDAATYYCQQRSNYPLTFGAGTKLELKR
As to B3, in assay [3], the binding result was “binds”.

B4: anti-LukAB mAb SM1B252 (antibody, mouse IgG2a, kappa, V domains shown)
VH: QVQLQQSGAELMKPGASVKISCKASGYTFSDYWIEWIKQRPGHGLEWMGEILPGSDKTNYNEKFKGKATFTADSSSNTAYMQLNSLTSEDSAVFYCATAGDDYVKWGQGTLVTVSA
VL: DVLMTQTPLSLPVSLGDQASISCRSSQSIVYSNGNTYLEWYLQKPGQSPKLLIYKVSNRFSGVPDRFSGSGSGTDFTLKISRVEAEDLGVYYCFQGSHVPFTFGSGTKLEIKR
For the molecule B4, in assay [4], the binding result is on record as “binds”.

B5: anti-LukE mAb SM1B318 (antibody, mouse IgG2a, kappa, V domains shown)
VH: QVQLQQSGAELMNPGASVKISCKSTGYKFSSYWIEWVKQRPGHGLEWMGEILPGSGSTNHNEKFKGKAIFTADASSNTAYMELSSLTSEDSAVYYCARTISTATDWFAYWGQGTLVTVSA
VL: B4 VL with S28T, N33D, F67V, F101Y, S105G
On to B5, for which the binding result in assay [2] is given as “binds”.

B6: Fab SM1B438 (the Fab corresponding to mAb SM1B318) (Fab, V domains shown)
VH: B5 VH
VL: B4 VL with S28T, N33D, F67V, F101Y, S105G
On to B6, for which, in assay [3], the binding result was “binds”.

B7: anti-LukAB mAb SM1B245 (antibody, mouse IgG2a, kappa, V domains shown)
VH: QVQLQQSGAELAKPGASVKMSCKSSGYTFSTYWMHWVKQRPGQGLEWIGYINPNTGYTEYNQKFKDTATLTADKSSSTAYMQLSSLTSEDSAVYYCARGGSKAFPYYAMDYWGQGTSVTVSS
VL: DIVLTQSPASLAVSLGQRATMSCRASESVDGYGNSFLHWYQQKPGQPPKLLIYRASNLESGIPARFSGTGSRTDFTLTITPVEADDVATYYCQQSNGDPFTFGSGTKLEIKR
With B7, in assay [4], the binding result was “binds”.

B8: anti-LukAB mAb SM1B111 (antibody, V domains shown)
VH: EVQLQQSGAELVKPGASVKISCKASGYAFSSSWMNWLKQRPGKGLEWIGRIYPGDGDTNYNGKFKGKATLTADKSSSTAYMQLSSLTSEDSAVYFCARYGYDYDGEYYYAMDYWGQGTSVTVSS
VL: DIVMTQSPTTMAASPGERITITCSAHSNLISNYLHWYQQKPGFSPKLLIYRTSNLASGVPARFSGSGSGTSYSLTIGTMEAEDVATYFCQQGSSIPFTFGSGTKLEIKR
In the case of B8, the binding result in assay [4] was “binds”.

B9: anti-LukE mAb SM1B507 (antibody, mouse IgG1, kappa)
heavy: EVQLQQSGAELVKPGASVKMSCKASGYTFTDYYMDWVKQSHGKSFEWIGHVNPYNGDTRYNQKFKGKATLTVDKSSTTAYMELNSLTSEDSAVYYCARGNFFDYWGQGTTLSVSSAKTTPPSVYPLAPGSAAQTNSMVTLGCLVKGYFPEPVTVTWNSGSLSSGVHTFPAVLESDLYTLSSSVTVPSSPRPSETVTCNVAHPASSTKVDKKIVPRDCGCKPCICTVPEVSSVFIFPPKPKDVLTITLTPKVTCVVVDISKDDPEVQFSWFVDDVEVHTAQTQPREEQFNSTFRSVSELPIMHQDWLNGKEFKCRVNSAAFPAPIEKTISKTKGRPKAPQVYTIPPPKEQMAKDKVSLTCMITDFFPEDITVEWQWNGQPAENYKNTQPIMNTNGSYFVYSKLNVQKSNWEAGNTFTCSVLHEGLHNHHTEKSLSHSPGK
light: DIVMTQSPAIMSASPGEKVTIPCSASSSVSYMHWFQQKPGTSPKLWIYSTSNLASGVPGRFSGSGSGTSYSLTISRMEAEDAATYYCQQRSNYPLTFGAGTKLELKRADAAPTVSIFPPSSEQLTSGGASVVCFLNNFYPKDINVKWKIDGSERQNGVLNSWTDQDSKDSTYSMSSTLTLTKDEYERHNSYTCEATHKTSTSPIVKSFNRNEC
For the molecule B9, the binding result in assay [5] is “binds”.

Source of the values: patent US20200317758A1 (NEW YORK UNIVERSITY, published 2020).
